The values below come from PMC12196458, “An Alternative Mechanism of Glutamate Dehydrogenase Inhibition by EGCG: Promotion of Protein Degradation” (Pharmaceuticals, 2025).

This data set deals with the molecule itself. In words: native gel or EMSA; native-PAGE of 2.5 mg/mL bovine GDH without EGCG or trypsin. For orientation: A gel shift assay detects complexes by their altered migration in electrophoresis.

B1: bovine glutamate dehydrogenase (enzyme)
chain: not shown
notes: Glutamate dehydrogenase 1, bovine, commercial preparation; Used as a substitute for wild-type human GDH in the gel experiments; also called Bovine GDH; Bo.GDH
With B1, the “stoichiometry N” value came to 6.

What is called stoichiometry N is a count of units in the complex or per binding partner.
